The target in the test is polymerized microtubules (UniProt P68369).

Among the data in PMC9058472 are microtubule binding against WT α-TAT1 values, retold here.

For the substance “GFP-α-TAT1^DC1 (α-TAT1 with Cluster 1 deleted) (from UniProt Q8K341 1-314) (domain or fragment)”, the microtubule binding against WT α-TAT1 was determined as 65%.
